# Assay results reported in patent publication US20120171195A1.
# Tests used:
# [1] = molecular target: HLA-B*1801 (B18) (human); assay: Luminex single-antigen beads; MEM-E/02 1/600; serum Mi59 1/100
# [2] = molecular target: HLA-A*2901 (A29) (human) (UniProt P04439); assay: as above
# [3] = molecular target: HLA-B*1513 (B77) (human); assay: as above
# [4] = molecular target: HLA-Cw*1802 (Cw18) (human) (UniProt P10321); assay: as above
# [5] = molecular target: HLA-B*3801 (B38) (human); assay: as above
# [6] = molecular target: HLA-A*3002 (A30) (human) (UniProt P04439); assay: as above
# [7] = molecular target: HLA-B*4801 (B48) (human) (UniProt P01889); assay: as above
# [8] = molecular target: HLA-B*1401 (B64) (human) (UniProt P01889); assay: as above
# [9] = molecular target: HLA-A*2501 (A25) (human); assay: as above
# [10] = molecular target: HLA-B*1511 (B75) (human) (UniProt P01889); assay: as above
# [11] = molecular target: HLA-Cw*1203 (Cw12) (human) (UniProt P10321); assay: as above
# [12] = molecular target: HLA-Cw*0401 (Cw4) (human); assay: as above
# [13] = molecular target: HLA-B*3901 (B39) (human) (UniProt P01889); assay: as above
# [14] = molecular target: HLA-Cw*0302 (human) (UniProt P10321); assay: Luminex beads; MAb 1/400; PBS only
# [15] = molecular target: HLA-Cw*1802 (human) (UniProt P10321); assay: Luminex beads; MAb 1/400; PBS only
# [16] = molecular target: HLA-Cw*0801 (human) (UniProt P10321); assay: Luminex beads; MAb 1/400; PBS only
# [17] = molecular target: HLA-Cw*0302 (human) (UniProt P10321); assay: Luminex beads; MAb 1/200; competitor rHLA-E
# [18] = molecular target: HLA-Cw*0702 (human) (UniProt P10321); assay: Luminex beads; MAb 1/200; competitor rHLA-E
# [19] = molecular target: HLA-Cw*1502 (human); assay: Luminex beads; MAb 1/200; competitor rHLA-E
# [20] = molecular target: HLA-B*4402 (human); assay: Luminex beads; MAb 1/200; competitor rHLA-E
# [21] = molecular target: HLA-B*4403 (human); assay: Luminex beads; MAb 1/200; competitor rHLA-E
# [22] = molecular target: HLA-B*5201 (human); assay: Luminex beads; MAb 1/200; competitor rHLA-E
# [23] = molecular target: HLA-B*4701 (human); assay: Luminex beads; MAb 1/200; competitor rHLA-E
# [24] = molecular target: HLA-Cw*0501 (human); assay: Luminex beads; MAb 1/200; competitor rHLA-E
# [25] = molecular target: HLA-B*1513 (human); assay: Luminex beads; MAb 1/1600; competitor rHLA-E
# [26] = molecular target: HLA-Cw*1802 (human) (UniProt P10321); assay: Luminex beads; MAb 1/1600; competitor rHLA-E
# [27] = molecular target: HLA-Cw*0702 (human) (UniProt P10321); assay: Luminex beads; MAb 1/1600; competitor rHLA-E
# [28] = molecular target: HLA-B*5101 (human); assay: Luminex beads; MAb 1/1600; competitor rHLA-E
# [29] = molecular target: HLA-Cw*1402 (human) (UniProt P10321); assay: Luminex beads; MAb 1/1600; competitor rHLA-E
# [30] = molecular target: HLA-B*4002 (human) (UniProt P01889); assay: Luminex beads; MAb 1/1600; competitor rHLA-E
# [31] = molecular target: HLA-B*4101 (human) (UniProt P01889); assay: Luminex beads; MAb 1/1600; PBS only
# [32] = molecular target: HLA-Cw*0303 (human); assay: Luminex beads; MAb 1/1600; PBS only
# [33] = molecular target: HLA-Cw*1502 (human); assay: Luminex beads; MAb 1/1600; PBS only
# [34] = molecular target: HLA-B*4601 (human) (UniProt P01889); assay: Luminex beads; MAb 1/1600; PBS only
# [35] = molecular target: HLA-B*2705 (human) (UniProt P01889); assay: Luminex beads; MAb 1/1600; PBS only
# [36] = molecular target: HLA-B*0801 (human) (UniProt P01889); assay: Luminex beads; MAb 1/1600; PBS only
# [37] = molecular target: HLA-Cw*0304 (human); assay: Luminex beads; MAb 1/1600; PBS only
# [38] = molecular target: HLA-Cw*0202 (human); assay: Luminex beads; MAb 1/1600; PBS only
# [39] = molecular target: HLA-B*5801 (human); assay: Luminex beads; MAb 1/1600; PBS only
# [40] = molecular target: HLA-B*2708 (human) (UniProt P01889); assay: Luminex beads; MAb 1/1600; PBS only
# [41] = molecular target: HLA-B*5201 (human); assay: Luminex beads; MAb 1/1600; PBS only
# [42] = molecular target: HLA-B*4501 (human); assay: Luminex beads; MAb 1/1600; PBS only
# [43] = molecular target: HLA-B*8201 (human) (UniProt P01889); assay: Luminex beads; MAb 1/1600; PBS only
substance,measurement,setting,value
murine monoclonal antibody MAb MEM-E/02,MFI,[1],< 500 MFI
same,MFI,[2],< 500 MFI
same,MFI,[3],< 500 MFI
same,MFI,[4],1080 MFI
same,MFI,[5],< 500 MFI
same,MFI,[6],< 500 MFI
same,MFI,[7],< 500 MFI
same,MFI,[8],< 500 MFI
same,MFI,[9],< 500 MFI
same,MFI,[10],< 500 MFI
same,MFI,[11],< 500 MFI
same,MFI,[12],4590 MFI
same,MFI,[13],< 500 MFI
murine monoclonal antibody (MAb) MEM-E/02,MFI,[14],1360 MFI
same,MFI,[15],7040 MFI
same,MFI,[16],3340 MFI
same,MFI,[17],137 MFI
same,MFI,[18],137 MFI
same,MFI,[19],86 MFI
same,MFI,[20],66 MFI
same,MFI,[21],75 MFI
same,MFI,[22],87 MFI
same,MFI,[23],67 MFI
same,MFI,[24],147 MFI
same,MFI,[25],246 MFI
same,MFI,[26],30 MFI
same,MFI,[27],88 MFI
same,MFI,[28],99 MFI
same,MFI,[29],48 MFI
same,MFI,[30],196 MFI
same,MFI,[31],645 MFI
same,MFI,[32],530 MFI
same,MFI,[33],485 MFI
same,MFI,[34],375 MFI
same,MFI,[35],191 MFI
same,MFI,[36],262 MFI
same,MFI,[37],512 MFI
same,MFI,[38],785 MFI
same,MFI,[39],524 MFI
same,MFI,[40],396 MFI
same,MFI,[41],537 MFI
same,MFI,[42],808 MFI
same,MFI,[43],417 MFI
